Measurements taken from publication PMC4338524 (Nature communications, 2014).

Assays:
[1] = target: T1, E. coli MinCD copolymeric filaments (pre-formed) (E. coli, UniProt P18196;P0AEZ3); assay: electron cryotomography of decorated liposomes
T1 sequence 1: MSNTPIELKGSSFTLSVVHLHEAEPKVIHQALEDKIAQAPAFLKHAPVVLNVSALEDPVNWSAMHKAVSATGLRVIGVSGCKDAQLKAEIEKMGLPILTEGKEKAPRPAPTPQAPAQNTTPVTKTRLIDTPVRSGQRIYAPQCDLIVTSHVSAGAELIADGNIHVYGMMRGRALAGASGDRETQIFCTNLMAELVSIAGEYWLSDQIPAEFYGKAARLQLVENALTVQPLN
T1 sequence 2: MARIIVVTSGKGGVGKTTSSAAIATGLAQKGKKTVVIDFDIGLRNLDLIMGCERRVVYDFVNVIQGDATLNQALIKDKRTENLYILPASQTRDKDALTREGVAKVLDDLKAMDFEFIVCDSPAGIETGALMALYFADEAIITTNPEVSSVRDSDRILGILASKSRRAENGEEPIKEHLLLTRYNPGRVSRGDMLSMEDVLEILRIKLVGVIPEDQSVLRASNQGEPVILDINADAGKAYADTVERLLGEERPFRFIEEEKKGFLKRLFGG

co-sedimentation = target: the molecule itself; assay: co-sedimentation
[2] = target: T2, E. coli MinD, full-length, untagged (E. coli, UniProt P0AEZ3 1-270); assay: 90° angle light scattering
T2 sequence: T1 sequence 2

B1: E. coli FtsZ (natural protein)
chain: MFEPMELTNDAVIKVIGVGGGGGNAVEHMVRERIEGVEFFAVNTDAQALRKTAVGQTIQIGSGITKGLGAGANPEVGRNAADEDRDALRAALEGADMVFIAAGMGGGTGTGAAPVVAEVAKDLGILTVAVVTKPFNFEGKKRMAFAEQGITELSKHVDSLITIPNDKLLKVLGRGISLLDAFGAANDVLKGAVQGIAELITRPGLMNVDFADVRTVMSEMGYAMMGSGVASGEDRAEEAAEMAISSPLLEDIDLSGARGVLVNITAGFDLRLDEFETVGNTIRAFASDNATVVIGTSLDPDMNDELRVTVVATGIGMDKRPEITLVTNKQVQQPVMDRYQQHGMAPLTQEQKPVAKVVNDNAPQTAKEPDYLDIPAFLRKQAD
binding result [1]: binds
binding result (co-sedimentation): binds

B2: E. coli MinE, full length (natural protein)
chain: MALLDFFLSRKKNTANIAKERLQIIVAERRRSDAEPHYLPQLRKDILEVICKYVQIDPEMVTVQLEQKDGDISILELNVTLPEAEELK
binding result [2]: binds
